Assay results published in patent US6630572.
Several values for one entry are separate records, joined by “and”; a condition that tells them apart may be missing. Equal entries are not always repeated.

Experiments:
[1] = molecular target: high-affinity cell surface thrombin receptor on mouse embryo (ME) cells (mouse) (UniProt P30558); assay: competition with [^125I]-alpha-thrombin (1 nM) on quiescent ME cells
[2] = molecular target: high-affinity cell surface thrombin receptor on mouse embryo (ME) cells (mouse) (UniProt P30558); assay: competition with [^125I]-alpha-thrombin on ME cells
[3] = molecular target: high-affinity cell surface thrombin receptor on mouse embryo (ME) cells (mouse) (UniProt P30558); assay: competition with [^125I]-alpha-thrombin (1 nM) for specific binding to quiescent ME cells, 23 C
[4] = molecular target: high-affinity cell surface thrombin receptor on mouse embryo (ME) cells (mouse) (UniProt P30558); assay: competition with [^125I]-alpha-thrombin (1 nM) on quiescent ME cells; at 800 nM peptide
[5] = molecular target: high-affinity cell surface thrombin receptor on mouse embryo (ME) cells (mouse) (UniProt P30558); assay: competition with [^125I]-alpha-thrombin on ME cells; reference p508-530
[6] = molecular target: high-affinity cell surface thrombin receptor on mouse embryo (ME) cells (mouse) (UniProt P30558); assay: cell-based or functional assay
[7] = molecular target: high-affinity cell surface thrombin receptor on NIL cells (hamster fibroblasts) (hamster); assay: cell-based or functional assay
[8] = molecular target: high-affinity cell surface thrombin receptor on mouse embryo (ME) cells (mouse) (UniProt P30558); assay: Scatchard analysis of direct binding of [^125I]-labelled peptide to cells (data not shown)
[9] = molecular target: high-affinity cell surface thrombin receptor on mouse embryo (ME) cells (mouse) (UniProt P30558); assay: competition with 0.3 nM [^125I]-alpha-thrombin on ME cells; p508-530 from 8 to 4000 nM
[10] = molecular target: high-affinity cell surface thrombin receptor on mouse embryo (ME) cells (mouse) (UniProt P30558); assay: competition with [^125I]-alpha-thrombin (1 nM) on quiescent ME cells; at 40 nM peptide

“synthetic peptide p519-530 (residues 519 to 530 of the B-chain region of human prothrombin)” showed a concentration at Maximal % Inhibition [1] of 800 nM, a percent of [^125I]-alpha-thrombin binding competed [2] of 30 to 50% and a Concentration Required for 30% Inhibition [3] of 200 nM. The Maximal % Inhibition [4] was 51% and the fold higher concentration for 30% inhibition than p508-530 [5] was 33 fold.

In the case of “synthetic peptide p508-530 (residues 508 to 530 of human prothrombin)”, the concentration at Maximal % Inhibition [1] is reported as 40 nM, the concentration of p508-530 at which stimulation of ME cells was observed [6] is reported as 12.5 nM and 100 nM and the increase in incorporation of [^3H]-thymidine into DNA in ME cells, 0.1 uM p508-530 with 2 nM alpha-thrombin, against cultures treated with alpha-thrombin alone [6] is reported as over 2 fold. It also gave an increase in incorporation of [^3H]-thymidine into DNA in ME cells, 0.1 uM p508-530 with 2 nM alpha-thrombin, against untreated cultures [6] of 6 fold, an increase in DNA synthesis over controls in NIL cells in the presence of 25 ng/ml PMA [7] of 3.5 fold and a Kd [8] of 60 nM. The Concentration Required for 30% Inhibition [3] was 6 nM, the percent of specific [^125I]-alpha-thrombin binding competed [9] was 30 to 70% and the Maximal % Inhibition [10] was 78%.
